The target in one experiment is HA-GSK3β (wild-type) (UniProt P49841). Briefly: co-IP; HEK293T transfected with HA-GSK3β-WT; anti-HA beads washed in TBS, then RNase A treatment (200 μg/ml) for 15 min at 4°C; blots for p72, DGCR8, Drosha and HA.
The target of the next experiment is HA-GSK3β-K85R (UniProt P49841). Briefly: co-IP; HEK293T transfected with HA-GSK3β-WT, -S9A, -K85R or -K85A,K86A; lysates pre-cleared, EZView anti-HA agarose beads, 4°C overnight; blots for p72, DGCR8 and HA.

In the case of “p72 (DDX17) (endogenous) (natural protein)”, the percent reduction of co-precipitation after RNase A treatment with HA-GSK3β (wild-type) is > 50%. Also, in the experiment with HA-GSK3β-K85R, the percent reduction of co-precipitation against GSK3β-WT was determined as 60%.

For the origin of these results see publication PMC5389555.
